Positions count from the first letter of the chain named. *1 amine or outer side, *2 acyl side, *3 side chain or, on linkers, in order; H or OH if unused. Bridges are numbered along the chain shown (N, C = ends). Where no end group is shown, it is not given here. Side-chain parts run from the residue outwards. The star is where a group is joined. C18 diacid = O=C(O)CCCCCCCCCCCCCCCCC(=O)*; γGlu = O=C(O)[C@H](CCC(=O)[*:2])N[*:1]; AEEA = NCCOCCOCC(=O)O
B1: human alpha-CGRP acylated at position 26 (peptide)
peptide: ACDTATCVTHRLAGLLSRSGGVVKNK([AEEA-AEEA-γGlu-C18 diacid])FVPTNVGSKAF
modifications: disulfide 2-7; ends not checked
B2: human alpha-CGRP acylated at position 31 (peptide)
peptide: ACDTATCVTHRLAGLLSRSGGVVKNNFVPTK([AEEA-AEEA-γGlu-C18 diacid])VGSKAF
modifications: disulfide 2-7; ends not checked
B3: human alpha-CGRP acylated at position 28 (peptide)
peptide: ACDTATCVTHRLAGLLSRSGGVVKNNFK([AEEA-AEEA-γGlu-C18 diacid])PTNVGSKAF
modifications: disulfide 2-7; ends not checked
B4: rat CGRP-alpha (peptide, UniProt P01256 83-119, looked up)
peptide: SCNTATCVTHRLAGLLSRSGGVVKDNFVPTNVGSEAF
modifications: disulfide 2-7; ends not checked
B5: human alpha-CGRP acylated at position 25 (peptide)
peptide: B4 peptide with S1A, N3D, D25K, E35K
modifications: position 25 (printed X) = N-ε-{2-(2-{2-[2-(2-{2-[4-carboxy-4-(17-carboxyheptadecanoylamino)butyrylamino]ethoxy}ethoxy)-acetylamino]ethoxy}ethoxy)acetyl})-L-lysine; Cys2 and Cys7 are cyclised with a disulfide bond
B6: human alpha-CGRP acylated at position 11 (peptide)
peptide: ACDTATCVTHK([AEEA-AEEA-γGlu-C18 diacid])LAGLLSRSGGVVKNNFVPTNVGSKAF
modifications: disulfide 2-7; ends not checked
B7: human alpha-CGRP acylated at position 29 (peptide)
peptide: ACDTATCVTHRLAGLLSRSGGVVKNNFVK([AEEA-AEEA-γGlu-C18 diacid])TNVGSKAF
modifications: disulfide 2-7; ends not checked
B8: human alpha-CGRP acylated at position 3 (peptide)
peptide: ACK([AEEA-AEEA-γGlu-C18 diacid])TATCVTHRLAGLLSRSGGVVKNNFVPTNVGSKAF
modifications: disulfide 2-7; ends not checked
B9: human alpha-CGRP acylated at position 4 (peptide)
peptide: ACDK([AEEA-AEEA-γGlu-C18 diacid])ATCVTHRLAGLLSRSGGVVKNNFVPTNVGSKAF
modifications: disulfide 2-7; ends not checked

biological target: CGRP receptor (calcitonin receptor-like receptor (CRLR), receptor activity modifying protein-1 (RAMP1)) (Homo sapiens, UniProt O60894+Q16602); test: CGRP-induced cAMP accumulation in CGRP receptor expressing cells (CHO, CRE luciferase reporter); type: cell-based; conditions: crude SPOT-synthesised peptides, photo-cleaved, in DMSO; CGRP-1-luc cell line
Sequence (Q16602 23-461, species assumed): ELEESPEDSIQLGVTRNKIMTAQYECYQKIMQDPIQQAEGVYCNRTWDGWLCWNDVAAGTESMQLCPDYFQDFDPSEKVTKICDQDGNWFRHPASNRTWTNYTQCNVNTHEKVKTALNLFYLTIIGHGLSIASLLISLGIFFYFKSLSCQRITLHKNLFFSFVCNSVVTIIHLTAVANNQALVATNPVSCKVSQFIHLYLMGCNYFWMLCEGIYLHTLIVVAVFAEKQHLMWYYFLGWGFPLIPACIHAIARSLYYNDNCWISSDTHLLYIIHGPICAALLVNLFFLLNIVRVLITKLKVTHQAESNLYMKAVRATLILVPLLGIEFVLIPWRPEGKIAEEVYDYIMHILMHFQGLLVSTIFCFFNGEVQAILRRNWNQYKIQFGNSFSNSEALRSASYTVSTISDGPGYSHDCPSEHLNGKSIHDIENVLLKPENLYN
Sequence (O60894 27-148, species assumed): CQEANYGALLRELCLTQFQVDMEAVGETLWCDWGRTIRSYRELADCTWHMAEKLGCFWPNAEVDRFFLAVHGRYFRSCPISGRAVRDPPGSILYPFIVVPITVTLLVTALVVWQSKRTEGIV
Experimental: Chinese hamster ovary (CHO) cells were stably transfected with calcitonin receptor-like receptor (CRLR), receptor activity modifying protein-1 (RAMP1) and CRE luciferase (cAMP responsive element for control of luciferase gene expression). Luciferase is a reporter-gene reporting accumulation of intracellular cAMP).
Cells were cultured in F12 media supplemented with GlutaMAX™ (Gibco cat no 31765-027), FBS (10%, Gibco 16140-071), Penicillin-streptomycin (1%, Lonza DE-17-602E), G418 (400 μg/ml, Gibco 10131-027), Blasticidine (10 μg/ml, Corning cat no 15205), Hygromycin (400 μg/ml, Calbiochem cat no 400052).
Cells were seeded in a 96 well plate (Packard #6005180), 20000 cells/well in 100 μl media on the day before experimentation. On the day of experimentation media was replaced by assay medium (Dulbecco's media w/o phenol red (Gibco cat no 11880-028) supplemented with 10% FBS (10%, Gibco 16140-071), Hepes (10 mM, Gibco cat no 15630), GlutaMAX™ (2 mM, Gibco cat no 35050), 50 μl/well.
Peptides were diluted in assay media before added to cells for stimulation, 50 μl/well.
Cells were incubated 5% CO2, 37° C. for 4 hours.
Assay medium and peptides were replaced by phosphate buffered saline (PBS, Gibco cat no 14040-091), 100 μl/well and LucLite™ (PerkinElmer, cat no 6076759), 100 μl/well were added. The plate was sealed before incubation for 30 min at room temperature (21° C.). Luciferase activity (luminescens, 7 s/well) was measured (TopCount®, NXT, Packard).
Dose-response curves were fitted by use of GraphPad Prism software and pEC50 values were calculated. Data were given as mean±SEM, n=2 and each analogue was tested twice.

pEC50-ratio relative to human alpha-CGRP, measured by the CGRP-induced cAMP accumulation in CGRP receptor expressing cells	Molecule
0.62	ACDTATCVTHRLAGLLSRSGGVVKNNFXPTNVGSKAF (ACDTATCVTHRLAGLLSRSGGVVKNNFK([AEEA-AEEA-γGlu-C18 diacid])PTNVGSKAF; disulfide 2-7; ends not checked) [Acylation Position 28, human alpha CGRP, position 28 replaced by X, the C18 diacid-gamma-Glu-OEG-OEG acylated L-lysine; Cys2-Cys7 disulfide]
0.15	ACDXATCVTHRLAGLLSRSGGVVKNNFVPTNVGSKAF (ACDK([AEEA-AEEA-γGlu-C18 diacid])ATCVTHRLAGLLSRSGGVVKNNFVPTNVGSKAF; disulfide 2-7; ends not checked) [Acylation Position 4, human alpha CGRP, position 4 replaced by X, the acylated L-lysine; Cys2-Cys7 disulfide]
0.41	ACDTATCVTHRLAGLLSRSGGVVKNNFVXTNVGSKAF (ACDTATCVTHRLAGLLSRSGGVVKNNFVK([AEEA-AEEA-γGlu-C18 diacid])TNVGSKAF; disulfide 2-7; ends not checked) [Acylation Position 29, human alpha CGRP, position 29 replaced by X, the acylated L-lysine; Cys2-Cys7 disulfide]
0.44	ACDTATCVTHRLAGLLSRSGGVVKNNFVPTXVGSKAF (ACDTATCVTHRLAGLLSRSGGVVKNNFVPTK([AEEA-AEEA-γGlu-C18 diacid])VGSKAF; disulfide 2-7; ends not checked) [Acylation Position 31, human alpha CGRP, position 31 replaced by X, the acylated L-lysine; Cys2-Cys7 disulfide]
0.28	ACDTATCVTHXLAGLLSRSGGVVKNNFVPTNVGSKAF (ACDTATCVTHK([AEEA-AEEA-γGlu-C18 diacid])LAGLLSRSGGVVKNNFVPTNVGSKAF; disulfide 2-7; ends not checked) [Acylation Position 11, human alpha CGRP, position 11 replaced by X, the acylated L-lysine; Cys2-Cys7 disulfide]
0.38	ACDTATCVTHRLAGLLSRSGGVVKNXFVPTNVGSKAF (ACDTATCVTHRLAGLLSRSGGVVKNK([AEEA-AEEA-γGlu-C18 diacid])FVPTNVGSKAF; disulfide 2-7; ends not checked) [Acylation Position 26, human alpha CGRP, position 26 replaced by X, the acylated L-lysine; Cys2-Cys7 disulfide]
0.23	ACDTATCVTHRLAGLLSRSGGVVKXNFVPTNVGSKAF (ACDTATCVTHRLAGLLSRSGGVVKKNFVPTNVGSKAF; cyclised or stapled) [Acylation Position 25, human alpha CGRP, position 25 replaced by X, the acylated L-lysine; Cys2-Cys7 disulfide]

biological target: CGRP receptor: calcitonin receptor-like receptor (CRLR) with receptor activity modifying protein-1 (RAMP1), stably transfected in Chinese hamster ovary (CHO) cells together with CRE luciferase; test: cell-based or functional assay; conditions: not given

EC50, pM (in vitro potency; CGRP-induced cAMP accumulation in CGRP receptor expressing cells, CRE luciferase) [pM]	pEC50-ratio relative to human alpha-CGRP	Molecule
9		rat CGRP-beta (from UniProt P10093 89-125) (peptide)
	0.38	B1
	0.44	B2
	0.62	B3
5		B4
	0.23	B5
	0.28	B6
	0.41	B7
	0.14	B8
	0.15	B9

Source: patent US8835379B2, “Derivatives of CGRP” (Novo Nordisk A/S, priority 2009, dated 2014)
